From US20220184120A1 (MINERVA BIOTECHNOLOGIES, published 2022)

B7: C-10 peptide (PSMGFR minus 10 amino acids from the C-terminus) (peptide)
peptide: GTINVHDVETQFNQYKTEAASRYNLTISDVSVSDV
notes: also called C-10 PSMGFR; PSMGFR C-10

Legend:
[1] = target: T1, N-10 peptide (PSMGFR minus 10 amino acids from the N-terminus); assay: ELISA
T1 construct: also called N-10 PSMGFR; PSMGFR N-10
T1 peptide: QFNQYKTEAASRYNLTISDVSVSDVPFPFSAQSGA

[2] = target: T2, N+9/C-9 peptide (9 amino acids added onto the N-terminus and 9 deleted from the C-terminus of PSMGFR); assay: ELISA (FIG. 66A)
T2 peptide: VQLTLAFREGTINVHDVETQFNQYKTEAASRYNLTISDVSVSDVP

[3] = target: B7; assay: ELISA
[4] = target: T3, PSMGFR peptide (Primary Sequence of the MUC1 Growth Factor Receptor); assay: ELISA (FIG. 65)
T3 construct: synthetic peptide immobilised on ELISA plates; also called MUC1* peptide; MUC1* extra cellular domain peptide
T3 peptide: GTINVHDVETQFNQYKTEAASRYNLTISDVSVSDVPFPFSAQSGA

[5] = target: T4, N+20/C-27 peptide (20 amino acids added onto the N-terminus and 27 deleted from the C-terminus of PSMGFR); assay: ELISA (FIG. 65A)
T4 peptide: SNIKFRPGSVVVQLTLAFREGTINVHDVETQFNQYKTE
From the text: (§1) The antibodies being tested were derived from animals immunized with the N+20/C−27 peptide. The first selection criteria was to confirm that the antibodies bound to the immunizing N+20/C−27 peptide. […] Although these antibodies were raised against the N+20/C−27 peptide, all but one, 45C11, still bind to the PSMGFR peptide. […] 1E4 was able to bind to the N+20/C−27 peptide, the PSMGFR and the N−10 peptide, consistent with the idea that its epitope must lie within the […] sequence. […] The color of the bars for each antibody in the ELISA graph are color coded to match the deductive cognate sequence, or a portion thereof, of that antibody.
(§2) This same ELISA assay was performed on the antibodies of the invention (FIG. 64-66 and FIG. 201). Note that only 20A10 exactly matches the binding profile of MNC2 and MNE6. 25E6, 28F9 and 18G12 are all able to bind to the N−10 peptide. 18B4 is the only antibody raised against the PSMGFR peptide that requires the 10 most N-terminal amino acids of the peptide. The color of the bars for each antibody in the ELISA graph are color coded to match the deductive cognate sequence, or a portion thereof, of that antibody. In addition, another set of antibodies was assayed by ELISA (FIG. 201). Of this set, B12, B2, B7, B9, 8C7F3, and H11 bound to the PSMGFR peptide, bound to the N−10 peptide, but not to the C−10 peptide (FIG. 201).

[6] = target: T2, N+9/C-9 peptide (9 amino acids added …); assay: ELISA (FIG. 66)
[7] = target: T3, PSMGFR peptide (Primary Sequence of the …); assay: ELISA (FIG. 69)
Protocol: (§3) In order to further refine the epitopes to which each antibody binds, a series of smaller peptides derived from the PSMGFR sequence were synthesized: N−30 (SEQ ID NO:7), N−26 (SEQ ID NO:6), N−19 (SEQ ID NO:4), N−10/C−5 (SEQ ID NO:8), N−19/C−5 (SEQ ID NO:9). Each of the antibodies was tested in an ELISA assay for their ability to bind to this refined set of peptides, plus PSMGFR, N−10 and C−10 peptides (FIG. 67-69).

[8] = target: T5, N-19/C-5 peptide; assay: ELISA (FIG. 69)
T5 peptide: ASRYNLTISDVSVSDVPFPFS
Protocol: as §3

[9] = target: T1, N-10 peptide (PSMGFR minus 10 amino …); assay: ELISA (FIG. 69)
Protocol: as §3

[10] = target: B7; assay: ELISA (FIG. 69)
Protocol: as §3

[11] = target: T6, N-19 peptide; assay: ELISA (FIG. 69)
T6 peptide: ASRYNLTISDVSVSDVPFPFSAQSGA
Protocol: as §3

[12] = target: T7, N-26 peptide; assay: ELISA (FIG. 69)
T7 peptide: ISDVSVSDVPFPFSAQSGA
Protocol: as §3

[13] = target: T8, N-30 peptide; assay: ELISA (FIG. 69)
T8 peptide: SVSDVPFPFSAQSGA
Protocol: as §3

[14] = target: T9, N-10/C-5 peptide; assay: ELISA (FIG. 69)
T9 peptide: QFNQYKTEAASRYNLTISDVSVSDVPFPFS
Protocol: as §3

[15] = target: T10, MUC1 transmembrane cleavage product after cleavage of full-length MUC1 by MMP9 (UniProt P15941 1110-1255); assay: flow cytometry, HCT-MUC1-18 cells + enzyme (FIG. 75L)
T10 construct: on HCT-MUC1-18 (or T47D) cells treated with MMP9; also called MUC1* generated by cleavage by MMP9; MMP9 cleaved form of MUC1
T10 sequence (looked up): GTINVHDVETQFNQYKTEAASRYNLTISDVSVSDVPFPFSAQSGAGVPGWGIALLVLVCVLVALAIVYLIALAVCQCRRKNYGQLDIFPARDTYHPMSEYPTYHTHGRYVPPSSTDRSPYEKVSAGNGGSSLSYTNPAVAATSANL
Protocol: (§4) Antibodies generated by immunization with PSMGFR, N+20/C−27, or N+9/C−9 were tested for their ability to recognize MUC1 after it is cleaved by MMP9. […] To HCT-MUC1-18 cells was added either a catalytically active MMP9 or MMP2. The enzymes, added over a range of concentrations, were incubated with the cells for 24 hours. The resultant cells were then incubated with the various antibodies and analyzed by FACS to determine which bound to a MUC1 cleavage product produced by cleavage by MMP9 (FIG. 75A-75N). […] Each bar graph is labeled with both the name of the antibody used in that assay and its cognate epitope. The order of the graphs from right to left corresponds to the distance from the cell surface of the antibody's cognate epitope. […] For the greatest degree of cancer specificity, the antibody should recognize a conformational epitope of a MUC1 cleavage product created when MUC1 is cleaved by MMP9.

[16] = target: T11, MUC1* (cleaved MUC1) as it occurs on MUC1/MUC1* positive cancer cell lines (human, UniProt P15941 1110-1255, limits assumed); assay: flow cytometry, panel of cancer cell lines (FIGS. 80-87)
T11 construct: the cell line is named under assay; also called MUC1* positive cancer cells; ZR-75-1 aka 1500
T11 sequence (looked up): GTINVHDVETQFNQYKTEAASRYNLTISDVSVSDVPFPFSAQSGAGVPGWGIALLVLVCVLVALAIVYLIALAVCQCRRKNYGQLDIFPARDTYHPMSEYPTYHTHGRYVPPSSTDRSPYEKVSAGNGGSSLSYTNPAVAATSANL

[17] = target: T2, N+9/C-9 peptide (9 amino acids added …); assay: ELISA
[18] = target: T3, PSMGFR peptide (Primary Sequence of the …); assay: ELISA (FIG. 65A)
From the text: as §1, §2

[19] = target: T10, MUC1 transmembrane cleavage product …; assay: flow cytometry, HCT-MUC1-18 cells + enzyme (FIG. 75K)
Protocol: as §4

[20] = target: B7; assay: ELISA (recap in IHC legend)
[21] = target: T3, PSMGFR peptide (Primary Sequence of the …); assay: ELISA, PSMGFR peptide on plate (FIG. 5)
Protocol: Humanized MN-C2 scFv is then incubated with the surface, washed and detected according to standard methods.

[22] = target: T12, NME7-AB (recombinant) (Homo sapiens (Human), UniProt Q9Y5B8 92-376); assay: ELISA (FIG. 2A)
T12 construct: the entry ends in a His tag; also called NM23-H7
T12 sequence: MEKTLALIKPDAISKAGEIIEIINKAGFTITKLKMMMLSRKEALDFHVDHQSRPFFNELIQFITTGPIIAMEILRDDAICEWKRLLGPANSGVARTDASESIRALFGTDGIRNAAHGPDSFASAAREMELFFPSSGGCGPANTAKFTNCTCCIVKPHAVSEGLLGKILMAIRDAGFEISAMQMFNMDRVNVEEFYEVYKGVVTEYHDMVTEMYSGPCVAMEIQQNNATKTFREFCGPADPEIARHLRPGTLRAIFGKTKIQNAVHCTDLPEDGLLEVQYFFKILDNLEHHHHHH
Protocol: (§5) FIGS. 2A-2I show results of ELISA assays. MUC1* peptides PSMGFR, PSMGFR minus 10 amino acids from the N-terminus aka N−10, or PSMGFR minus 10 amino acids from the C-terminus, aka C−10 are immobilized on the plate and the following are assayed for binding: NME7-AB (FIG. 2A), MN-C2 monoclonal antibody (FIG. 2B), MN-E6 monoclonal antibody (FIG. 2C), or dimeric NME1 (FIG. 2D). […] MUC1* peptides PSMGFR minus 10 amino acids from the N-terminus aka N−10, or PSMGFR minus 10 amino acids from the C-terminus, aka C−10, are immobilized on the plate and the following are assayed for binding: MN-C3 (FIG. 2E) and MN-C8 (FIG. 2F).

[23] = target: T13, dimeric NME1 (human, UniProt P15531 1-152, limits assumed); assay: ELISA (FIG. 2D)
T13 construct: also called NM23-H1 dimers; dimeric NM23-H1
Protocol: as §5

T13 sequence (P15531 whole entry): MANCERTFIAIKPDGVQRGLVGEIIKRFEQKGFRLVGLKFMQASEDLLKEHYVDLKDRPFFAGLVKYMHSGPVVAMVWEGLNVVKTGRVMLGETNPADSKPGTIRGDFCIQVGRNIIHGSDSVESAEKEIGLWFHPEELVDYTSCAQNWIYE

B1: 3C5 mouse monoclonal antibody (antibody, V domains shown)
VH: QIQLVQSGPELKKPGETVKISCKASGYTFTNYGMNWVKQAPGKGLKWMGWINTYTGKPTYADDFKGRFAFSLETSASTAYLQINNLKNEDTATYFCARGGLDGYYGYWGQGTTLTVSS
VL: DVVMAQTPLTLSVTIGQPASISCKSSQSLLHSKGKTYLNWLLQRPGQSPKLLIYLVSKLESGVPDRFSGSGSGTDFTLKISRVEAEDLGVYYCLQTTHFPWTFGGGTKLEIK
notes: raised against N+9/C-9; also called N+9/C-9 antibody 3C5
**Q.** Does B1 bind [1]?
**A.** no binding

**Q.** Does B1 bind [2]?
**A.** binds

B2: 1E4 mouse monoclonal antibody (antibody, V domains shown)
VH: QVQLQQSGAELVRPGSSVKISCKASGYAFSTYWMNWVKQRPGQGLEWIGQIYPGDSDTNYNGKFKGKATLTADKSSNTAYMQLSSLTSEDSAVFFCARGNHASMDYWGQGTSVTVSS
VL: DVVMTQTPLSLPVSLGDQASISCRSSQSLVHSNGNTYLHWYLQKPGQSPKLLIYKVSNRFSGVPDRFSGSGSGTDFTLKISRVEAEDLGVYFCSQKTHVPWTFGGGTKLEIK
notes: raised against N+20/C-27; also called MN-1E4; N+20/C-27 antibody 1E4
**Q.** Does B2 bind [1]?
**A.** binds

**Q.** Does B2 bind [3]?
**A.** binds

**Q.** Does B2 bind [4]?
**A.** binds

**Q.** Does B2 bind [5]?
**A.** binds

B3: 8A9 mouse monoclonal antibody (antibody, V domains shown)
VH: EVELVESGGGLVQPGGSLRLSCATSGFTFTDHYMSWVRQPPGKALEWLGFIRNKANGYTTEYSASVKGRFTISRDNSQSILYLQMKTLRTEDSATYYCARPSDWDSWFAYWGQGTLVTVSA
VL: DVLMTQTPLSLPVSLGDQASISCRSSQSIVHSNGNTYLDWYLQKPGQSPKLLIYRVSNRFSGVPDRFSGSGSGTDFTLKISRVEAEDLGLYYCFQGSHVPWAFGGGTKLEIK
notes: raised against N+9/C-9; also called N+9/C-9 antibody 8A9
**Q.** Does B3 bind [6]?
**A.** binds

**Q.** Does B3 bind [7]?
**A.** no binding

**Q.** Does B3 bind [8]?
**A.** no binding

**Q.** Does B3 bind [9]?
**A.** no binding

**Q.** Does B3 bind [10]?
**A.** no binding

**Q.** Does B3 bind [11]?
**A.** no binding

**Q.** Does B3 bind [12]?
**A.** no binding

**Q.** Does B3 bind [13]?
**A.** no binding

**Q.** Does B3 bind [14]?
**A.** no binding

**Q.** Does B3 bind [15]?
**A.** no binding

**Q.** Does B3 bind [16]?
**A.** no binding

B4: 39H5 mouse monoclonal antibody (antibody, V domains shown)
VH: QIQLVQSGPELKKPGETVKISCKASGYTFTNYGMNWVKQAPGKGLKWMGWINTYTGEPTYVGDFKGRFAFSLETSASTAYLQINNLKNEDTATYFCVRGIHGYVDYWGQGTTLTVSS
VL: DVLMTQTPLSLPVSLGDQASISCRSSQSIVHRNGNTYLEWYLQKPGQSPKLLIYKVSNRFSGVPDRFSGSGSGTDFTLKISRVEAEDLGVYYCFQGSHLPWTFGGGTKLEIK
notes: raised against N+9/C-9; also called N+9/C-9 antibody 39H5
**Q.** Does B4 bind [17]?
**A.** binds

**Q.** Does B4 bind [8]?
**A.** no binding

**Q.** Does B4 bind [10]?
**A.** no binding

**Q.** Does B4 bind [11]?
**A.** no binding

**Q.** Does B4 bind [12]?
**A.** no binding

**Q.** Does B4 bind [13]?
**A.** no binding

**Q.** Does B4 bind [14]?
**A.** no binding

B5: 45C11 mouse monoclonal antibody (antibody, V domains shown)
VH: EVQLQQSGADLVKPGASVKLSCTASGFNIKDTFMHWVKQRPEQGLEWIGRIDPANGNTKYDPKFQGKATITADTSSNTAYLQLSSLTSEDTAVYYCAKPYGNYGYYYALDYWGQGTSVTVSS
VL: DVQITQSPSYLAASPGETITINCRASKSISKYLAWYQEKPGKTNKLLIYSGSTLQSGIPSRFSGSGSGTDFTLTISSLEPEDFAMYYCQQHNEFPWTFGGGTKLEIK
notes: raised against N+20/C-27; also called N+20/C-27 antibody 45C11
**Q.** Does B5 bind [1]?
**A.** no binding

**Q.** Does B5 bind [18]?
**A.** no binding

**Q.** Does B5 bind [19]?
**A.** no binding

**Q.** Does B5 bind [16]?
**A.** no binding

B6: humanized MN-C2 scFv (scFv)
scFv: EVQLVESGGGLVKPGGSLRLSCAASGFTFSGYAMSWVRQAPGKGLEWVSTISSGGTYIYYPDSVKGRFTISRDNAKNSLYLQMNSLRAEDTAVYYCARLGGDNYYEYFDVWGKGTTVTVSSGGGGSGGGGSGGGGSDIVLTQSPASLAVSPGQRATITCRASKSVSTSGYSYMHWYQQKPGQPPKLLIYLASNLESGVPARFSGSGSGTDFTLTINPVEANDTANYYCQHSRELPFTFGGGTKVEIKRT
notes: also called huMN-C2scFv; huMNC2scFv; not shown: 6xHis tag detected with Anti-Penta-His antibody
**Q.** Does B6 bind [20]?
**A.** no binding

**Q.** And the EC50 [21]?
**A.** ~333 nM

**Q.** Does B7 bind [22]?
**A.** no binding

**Q.** Does B7 bind [23]?
**A.** no binding
